Laboratory results from patent US20050250143.

System: Myc-tagged MIF1/MSP58 protein (plasmid pCM562), expressed in CHO stable clone #34
Sequence (chain, as listed by the source): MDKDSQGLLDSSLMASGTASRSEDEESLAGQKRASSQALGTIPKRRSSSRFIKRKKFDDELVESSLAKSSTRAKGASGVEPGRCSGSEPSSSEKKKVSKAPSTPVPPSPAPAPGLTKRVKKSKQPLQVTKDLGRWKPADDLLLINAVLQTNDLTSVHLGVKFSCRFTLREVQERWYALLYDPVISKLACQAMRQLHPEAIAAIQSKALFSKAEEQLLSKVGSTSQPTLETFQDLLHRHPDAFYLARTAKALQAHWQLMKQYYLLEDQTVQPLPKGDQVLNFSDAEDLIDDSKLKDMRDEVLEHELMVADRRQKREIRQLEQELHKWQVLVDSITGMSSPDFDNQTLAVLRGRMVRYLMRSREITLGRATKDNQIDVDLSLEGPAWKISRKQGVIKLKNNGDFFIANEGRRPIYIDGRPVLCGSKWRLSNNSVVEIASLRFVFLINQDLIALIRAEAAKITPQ

For “MEKK1 of CHO cells (cellular, activated by sorbitol)”, the “JNK activation (in vitro GST-Jun(1-223) phosphorylation) after 200 mM sorbitol, CHOMIF1 #34 against CHOpCDNA3” value was “Cells expressing MIF1 showed an inhibition of JNK activation (revelated by weak GST-JUNphosphorylation) in response to sorbitol incubation”.
